The values below come from the nanobody polyreactivity screen of Harvey et al. (2022).

The series can be described thus: yeast display, Sf9 membrane polyspecificity reagent, FACS + sequencing; frameworks hold sequencing errors. The gist of the method: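 Nanobodies from a synthetic yeast display library (Saccharomyces cerevisiae BJ5465), induced 36–48 hours with galactose, were stained 1 hour at 4 °C with 10% biotinylated, detergent-solubilized Sf9 membrane reagent, enriched on streptavidin microbeads, then FACS-sorted. Anti-HA (expression) and streptavidin (reagent binding) fluorescence set low and high (top ~1%) gates. Polyreactivity labels come from the gate of origin. Genes were colony-PCR amplified, MiSeq 2 × 250 sequenced and filtered by CDR length.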
“QVQLVESGGGLVQAGGSLRLSCAASGRTFRAYAMGWYRQAPGKERELVAAIRSGTSTNYADSVKGRFTISRDNAKNTVYLQMNSLKPEDTAVYYCAAEWRKTYRYFTFGYWGQGTQVTVSS”: the “polyreactivity (PSR sort gate)” value is recorded as “high polyreactivity”.

For the sequence “QVQLVESGGGLVQAGGSLRLSCAASGRTFRAYAMGWYRQAPGKERELVAAISRSGGRTYYADSVKGRFIISRDNAKITVYLQMNSLKPEDTAVYYCAAGSNIWGQGTQVTVSS”, the “polyreactivity (PSR sort gate)” value was “high polyreactivity”.

As to “QVQLVESGGGLVQAGGSLRLSCAASGRTFRDNAMGWYRQAPGKERELVAAISRRGGSTYYADSVKGRFTISRDNAKNTVYLQMNSLKPEDTAVYYCAADRPDGWVDYWGQGTQVTVSS”, the “polyreactivity (PSR sort gate)” value is listed as “low polyreactivity”.

For the sequence “QVQLVESGGGLVQAGGSLRLSCAASGRTFRDNTMGWYRQAPGKERELVAGISSSTGSTYYADSVKGRFTISRDNAKNTVYLQMNSLKPEDTAVYYCAAEYADYWTYNMGYWGQGTQVTVSS”, the “polyreactivity (PSR sort gate)” value is listed as “low polyreactivity”.

Turning to “QVQLVESGGGLVQAGGSLRLSCAASGRTFRFYAMGWYRQAPGKERELVAAITSGGSTTYADSVKGRFTISRDNAKNTVYLQMNSLKPEDTAVYYCNADRARAYDYWGQGTQVTVSS”, the “polyreactivity (PSR sort gate)” value is “high polyreactivity”.

Take “QVQLVESGGGLVQAGGSLRLSCAASGRTFRGYAMGWYRQAPGKERELVAAISASGGSTYYADSVKGRFTISRDNAKNTVYLQMNSLKPEDTAVYYCAARFWFTKGYDYWGQGTQVTVSS”: the “polyreactivity (PSR sort gate)” value is listed as “high polyreactivity”.

“QVQLVESGGGLVQAGGSLRLSCAASGRTFRGYAMGWYRQAPGKERELVAAISSGGSTYYADSVKGRFTISRDNAKNTVYLQMNSLKPEDTAVYYCAVAYYPHGREGAHFQYGYDYWGQGTQVTVSS”: the “polyreactivity (PSR sort gate)” value is “low polyreactivity”.

In the case of “QVQLVESGGGLVQAGGSLRLSCAASGRTFRHDGMGWYRQAPGKERELVAAISRSGGRTYYADSVKGRFTISRDNAKNTVYLQMNSLKPEDTAVYYCNAPYDVTTYAFDYWGQGTQVTVSS”, the “polyreactivity (PSR sort gate)” value is “high polyreactivity”.

Turning to “QVQLVESGGGLVQAGGSLRLSCAASGRTFRIYAMGWYRQAPGKERELVAAITWGGGSTYYADSVKGRFTISRDNAKNTVYLQMNSLKPEDTAVYYCARVGWSWPRREKYNYWGQGTQVTVSS”, the “polyreactivity (PSR sort gate)” value is “high polyreactivity”.

Regarding “QVQLVESGGGLVQAGGSLRLSCAASGRTFRIYAMGWYRQAPGKERELVATISGRGGNTYYADSVKGRFTISRDNAKNTVYLQMNSLKPEDTAVDYCAADDATAYRVDGFKYDYWGQGTLVTVSS”, the “polyreactivity (PSR sort gate)” value is recorded as “high polyreactivity”.

As for “QVQLVESGGGLVQAGGSLRLSCAASGRTFRIYARGWSRQAPGKERELDAAITKRGGITYYADSVKGRFTISRDNAQNTVYLQMNSLKPEDTAVYYCAKAWKSWSRISKSTFYWTSGDYWGQGTQVTVSS”, the “polyreactivity (PSR sort gate)” value is “high polyreactivity”.

“QVQLVESGGGLVQAGGSLRLSCAASGRTFRKFAMGWYRQAPGKERELVAASSWSGGSTYYANSVKGRFTISRDNAKNTVYLQMNSLKPDDTAVYYCAAVPVHTGSLYWGFTTGYDYWGQGTQVTVSS”: the “polyreactivity (PSR sort gate)” value is recorded as “low polyreactivity”.

For the sequence “QVQLVESGGGLVQAGGSLRLSCAASGRTFRKYAMGWYRQAPGKERELVAAISWSGGSRYYANSVKGRFTISRDNAKNTVYLQMNSLKPEETAVYYCSAVPVHTGSLYWGFTTGYDYWGQGTQVTVSS”, the “polyreactivity (PSR sort gate)” value is “low polyreactivity”.

“QVQLVESGGGLVQAGGSLRLSCAASGRTFRKYAMGWYRQAPGKERELVAAISWSGGSTYYANSVKGRFTISRDNAKNTVYLQMNSLKPEDTAVYYCAAVPVHTGSLYWGFTTGYDYWGQGTQVTVSS”: the “polyreactivity (PSR sort gate)” value was “low polyreactivity”.

Consider “QVQLVESGGGLVQAGGSLRLSCAASGRTFRLNAMGWYRQAPGKERELVARITGSSGGSTYYADSVKGRFTISRDNAKNTVYLQMNSLKPEDTAVYYCNKRVGFLYKYDYWGQGTQVTVSS”, for which the “polyreactivity (PSR sort gate)” value was “high polyreactivity”.

In the case of “QVQLVESGGGLVQAGGSLRLSCAASGRTFRLYAMGWYRHAPGKERELVAAISRRGGSTYYADSVKGRFTISRDNAKNTVYLQMNSLKPEDTAVYYCAKGLGSGQEIYGYDYWGQGTQVTVSS”, the “polyreactivity (PSR sort gate)” value was “high polyreactivity”.

In the case of “QVQLVESGGGLVQAGGSLRLSCAASGRTFRLYAMGWYRQAPGKVRELGAAITRGGRTNYADSVKGRFTISRDNAKNTVYLQMNSLKPEDTALYYCAARYVERHTDYYYWGQGTQVTVSS”, the “polyreactivity (PSR sort gate)” value was “low polyreactivity”.

For “QVQLVESGGGLVQAGGSLRLSCAASGRTFRNNAMGWYRQAPGKEREFVAVISNTGGSTYYADSVKGRFTISRDNAKNTVYLQMYSLKPEDTAVYYCAVRPRYSQYYYWGQGTQVTVSS”, the “polyreactivity (PSR sort gate)” value is on record as “high polyreactivity”.

As to “QVQLVESGGGLVQAGGSLRLSCAASGRTFRNYAMGWYRPAPGKERELVAAITWSGGSTYYADSVKGRFTISRDNAKNTVYLQMNSLKPEDTAVYYCNVRSYTRTYNYWGQGTQVTVSS”, the “polyreactivity (PSR sort gate)” value is “high polyreactivity”.

In the case of “QVQLVESGGGLVQAGGSLRLSCAASGRTFRPNVMGWYRQAPGKERELVAAISNGGRTYYADSVKGRFTISRDNAKNTVFLQMNCLKAEYTAVYYCNKVRSPWYDYWVQGTQVTVSS”, the “polyreactivity (PSR sort gate)” value is given as “high polyreactivity”.

For the sequence “QVQLVESGGGLVQAGGSLRLSCAASGRTFRPYAMGWYRPAPGKERELVAAISYRGGITNYADSVKGRFTISRDNAKNTVYLKMNSLKPEDTAVYYCNRYAIWVSRYSDLDYWGQGTEVTVSS”, the “polyreactivity (PSR sort gate)” value was “low polyreactivity”.

For “QVQLVESGGGLVQAGGSLRLSCAASGRTFRPYAMGWYRQAPGKERELVAAISSGGSTYYADSVKGRFTISRDNAKNTVYLQMNSLKPEDTAVYYCNAVGLWARDYGYWGQGTQVTVSS”, the “polyreactivity (PSR sort gate)” value is recorded as “high polyreactivity”.

For the sequence “QVQLVESGGGLVQAGGSLRLSCAASGRTFRRNAMGWYRQAPGKERELVAAISGGGSTNYADSVKGRFTISRDNAKNTVYLQMNSLKPEDTAVYYCNKRGTIWSGYWGQGTQVTVSS”, the “polyreactivity (PSR sort gate)” value is “high polyreactivity”.

As to “QVQLVESGGGLVQAGGSLRLSCAASGRTFRRNAMGWYRQAPGKERELVASITRNGGSTYYADSVKGRFTISRDNAKNTVYLQMNILKPEDTAVYYCYKTQPIDLYGYWGQGTQVTVSS”, the “polyreactivity (PSR sort gate)” value is given as “high polyreactivity”.

“QVQLVESGGGLVQAGGSLRLSCAASGRTFRRNAMGWYRQAPGKERELVATISSSGGRTYYADSVKGRFTISRDNAKKTVYFQMNSLKPEDTAVYYCNKALRTYPLFYYWGQGTQVTVSS”: the “polyreactivity (PSR sort gate)” value is given as “high polyreactivity”.

On to “QVQLVESGGGLVQAGGSLRLSCAASGRTFRRNVMGWYRQAPGKERELVAAISSGANTNYADSVKGRFTISRDNAKNTVYLQMNSLKPEDTAVYYCNARWQEPLKYDYWGQGTQVTVSS”, for which the “polyreactivity (PSR sort gate)” value is reported as “low polyreactivity”.

Regarding “QVQLVESGGGLVQAGGSLRLSCAASGRTFRRYAMGWYRQAPGKERELVAAISWGAGSTRYADSVKGRFTISRDNAKNTVYLQMNSLKPEDTAVYYCAAENTRAYGMYYWGQGTQVTVSS”, the “polyreactivity (PSR sort gate)” value is “high polyreactivity”.

As to “QVQLVESGGGLVQAGGSLRLSCAASGRTFRRYAMGWYRQAPGKERELVAAISYSGTTTYYADSVKGRFTISRDNAKNTVYLQMNSLKPEDTAVYYCNKATAFGLDYWGQGTQVTVSS”, the “polyreactivity (PSR sort gate)” value is recorded as “high polyreactivity”.

For “QVQLVESGGGLVQAGGSLRLSCAASGRTFRRYAMGWYRQAPGKERELVATIRSGDNTNYADSVKGRFTISRDNAKNTVYLQMNSLKPEDTAVYYCNRSPKSGQVTYLYSVNAHYDYWGQGTQVTVSS”, the “polyreactivity (PSR sort gate)” value was “low polyreactivity”.

On to “QVQLVESGGGLVQAGGSLRLSCAASGRTFRRYFMGWYRQAPGKERELVAAISGGGGSTYYAGSVKGRFTISRDNAKNTVYLQMNSLKPEDTAVYYCAARIGWYQYWGYPTSYGYWGQGTQVTVSS”, for which the “polyreactivity (PSR sort gate)” value is given as “high polyreactivity”.

In the case of “QVQLVESGGGLVQAGGSLRLSCAASGRTFRRYTMGWYRPAPGKERELVAAITTSGGSTYYADSVKGRFTLSRDNAKNTVYLQMNSLKPEDTAVYYCAATRRYSGDYWGQGTQVTVSS”, the “polyreactivity (PSR sort gate)” value was “high polyreactivity”.

Turning to “QVQLVESGGGLVQAGGSLRLSCAASGRTFRSNAMGWDRQAPGKEREFVAAISSGGSTKYADSVKGRFTISRDNAKNTVYLQMNSLKPEDTAVYYCAAVSHSRYWGQGTQVTVSS”, the “polyreactivity (PSR sort gate)” value is listed as “high polyreactivity”.

As for “QVQLVESGGGLVQAGGSLRLSCAASGRTFRSNAMGWYRQAPGKERELVAAISKRGASTYYADSVKGRFTISRDNAKNTVYLQMNSLKPEVTAVYYCNTGAAKHAYDYWGQGTQVTVSS”, the “polyreactivity (PSR sort gate)” value is on record as “high polyreactivity”.

For the sequence “QVQLVESGGGLVQAGGSLRLSCAASGRTFRSNAMGWYRQAPGKERELVAAISNSGASTYYADSVKGRFTISRDNAKNTFYLQMNSLKPEDTAVYYCAADYYRPYRYDYWGQGTQVTVSS”, the “polyreactivity (PSR sort gate)” value is reported as “high polyreactivity”.

On to “QVQLVESGGGLVQAGGSLRLSCAASGRTFRSNAMGWYRQAPGKERELVAAITRSGGNTYYADSVKGRFTISRDTAKNTVYLQMNSLKPEDTAVYYCADRYSNPWARVSGYDYWGQGTQVTVSS”, for which the “polyreactivity (PSR sort gate)” value was “high polyreactivity”.

Regarding “QVQLVESGGGLVQAGGSLRLSCAASGRTFRSYAMGWYRQAPGKERELVATITRGSSTNYADSGKGRFTISRDNAKNTVYLQMNSLKPEDTAVYYCNADGKPPYISWLYDYWGQGTQVTVSS”, the “polyreactivity (PSR sort gate)” value is on record as “low polyreactivity”.

Take “QVQLVESGGGLVQAGGSLRLSCAASGRTFRTNAMGWYRQAAGKERELVAAIRASTGSTYYADSVKGRFTMSRDNAKNTVYLQMNSLKPEDTAVYYCAARLRRGLTATWYYYWGQGTQVTVSS”: the “polyreactivity (PSR sort gate)” value is recorded as “high polyreactivity”.

Turning to “QVQLVESGGGLVQAGGSLRLSCAASGRTFRTNAMGWYRQAPGKERELVAAITSDGTYYADSVKGRFTISRDNAKNTVYLQMNSLKPEDTAVYYCNVDDRETRDDYWGQGTQVTVSS”, the “polyreactivity (PSR sort gate)” value was “low polyreactivity”.

As to “QVQLVESGGGLVQAGGSLRLSCAASGRTFRTNAMGWYRQAPGKESELVADITYSGDSTYDADSVKGRFTISRDNAKNNVYLQMNSLKPEDTAVYYCNARLLSGPGYDYWGQGTQVTVSS”, the “polyreactivity (PSR sort gate)” value is listed as “low polyreactivity”.

As to “QVQLVESGGGLVQAGGSLRLSCAASGRTFRTNTMGWYRQAPGKERELVAAIRYIGGSTYYADSVKGRFTISRDNAKNTVYLQMNSLKPEDTAVYYCAAYRYGSRYGYEYWGQGTQVTVSS”, the “polyreactivity (PSR sort gate)” value is “high polyreactivity”.

Turning to “QVQLVESGGGLVQAGGSLRLSCAASGRTFRTYAMGWYRQAPGKERELVAITTSGGSTYYADSVKGRFTISRDNAKNTVYLQMNSLKPEDTAVYYGAAQWRSYYDQYGYDYWGQGTQVTVSS”, the “polyreactivity (PSR sort gate)” value is on record as “low polyreactivity”.
